US20240076389A1 (NATIONAL RESEARCH COUNCIL OF CANADA, published 2024)

T1: mouse AXL extracellular domain (Sino cat. 51026-M08H) (mouse, UniProt Q00993 19-445)
T1 construct: extracellular domain; Bought protein; also called mouse AXL ECD
T1 sequence (looked up): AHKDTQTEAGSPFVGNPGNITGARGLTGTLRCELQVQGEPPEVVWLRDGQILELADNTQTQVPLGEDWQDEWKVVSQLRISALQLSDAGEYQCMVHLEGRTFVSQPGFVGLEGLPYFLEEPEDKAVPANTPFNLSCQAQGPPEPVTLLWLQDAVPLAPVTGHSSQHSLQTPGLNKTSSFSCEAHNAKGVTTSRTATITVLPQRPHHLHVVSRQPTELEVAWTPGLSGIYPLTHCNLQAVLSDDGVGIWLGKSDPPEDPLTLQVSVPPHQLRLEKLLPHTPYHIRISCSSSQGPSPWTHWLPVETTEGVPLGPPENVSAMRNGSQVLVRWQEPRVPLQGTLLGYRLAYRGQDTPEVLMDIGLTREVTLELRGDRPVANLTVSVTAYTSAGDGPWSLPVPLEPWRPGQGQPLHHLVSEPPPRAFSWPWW

T2: recombinant human AXL extracellular domain, C-terminally His8-tagged (rhAXL-ECD) (human, UniProt P30530 26-451)
T2 construct: Made in CHO cells; also called (rh)AXL-ECD His8; human AXL ECD
T2 sequence: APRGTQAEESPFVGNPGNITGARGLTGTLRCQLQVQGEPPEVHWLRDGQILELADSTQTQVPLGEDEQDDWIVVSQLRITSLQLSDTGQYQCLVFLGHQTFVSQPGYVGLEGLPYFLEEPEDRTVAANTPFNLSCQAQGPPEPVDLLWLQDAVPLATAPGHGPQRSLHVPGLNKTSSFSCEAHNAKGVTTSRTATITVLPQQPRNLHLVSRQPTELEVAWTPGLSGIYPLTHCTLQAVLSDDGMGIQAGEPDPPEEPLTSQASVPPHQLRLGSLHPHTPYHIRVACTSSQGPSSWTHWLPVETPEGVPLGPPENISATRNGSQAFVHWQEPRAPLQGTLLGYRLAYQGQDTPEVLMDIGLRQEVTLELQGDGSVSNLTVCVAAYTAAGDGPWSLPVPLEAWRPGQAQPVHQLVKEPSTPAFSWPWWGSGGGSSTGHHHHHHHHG

T3: human AXL expressed on the cell surface of tumor cell lines (human, UniProt P30530 26-894)
T3 construct: whole, on cells; also called cell surface-expressed AXL; cell-based AXL
T3 sequence (looked up): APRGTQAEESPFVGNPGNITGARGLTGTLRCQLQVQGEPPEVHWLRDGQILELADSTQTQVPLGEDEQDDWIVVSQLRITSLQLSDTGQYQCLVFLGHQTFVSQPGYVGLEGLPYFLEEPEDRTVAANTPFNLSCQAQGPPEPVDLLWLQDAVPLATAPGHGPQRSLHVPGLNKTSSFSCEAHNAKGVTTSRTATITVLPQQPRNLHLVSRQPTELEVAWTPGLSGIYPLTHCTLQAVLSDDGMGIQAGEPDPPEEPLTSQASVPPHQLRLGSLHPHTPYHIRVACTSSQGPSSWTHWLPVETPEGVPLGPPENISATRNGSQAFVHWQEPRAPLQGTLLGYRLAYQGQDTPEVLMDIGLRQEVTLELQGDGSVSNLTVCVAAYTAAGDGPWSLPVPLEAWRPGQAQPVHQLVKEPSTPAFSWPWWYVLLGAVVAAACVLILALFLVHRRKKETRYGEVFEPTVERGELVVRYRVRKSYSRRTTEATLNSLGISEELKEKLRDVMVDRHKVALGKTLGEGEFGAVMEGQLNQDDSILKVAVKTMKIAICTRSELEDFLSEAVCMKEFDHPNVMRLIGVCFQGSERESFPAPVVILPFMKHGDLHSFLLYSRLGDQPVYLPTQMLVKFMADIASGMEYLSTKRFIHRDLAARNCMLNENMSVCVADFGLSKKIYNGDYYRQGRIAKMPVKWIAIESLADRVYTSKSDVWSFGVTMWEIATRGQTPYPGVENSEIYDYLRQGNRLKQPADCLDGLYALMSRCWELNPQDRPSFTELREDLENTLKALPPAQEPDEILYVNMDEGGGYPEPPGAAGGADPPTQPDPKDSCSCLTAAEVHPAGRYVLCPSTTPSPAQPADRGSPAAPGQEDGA


Experiments:
[1] = target: T1, mouse AXL extracellular domain (Sino …); test: ELISA on coated mouse AXL ECD (100 ng/well)
Description: (§1) ELISA. ELISAs against human, cyno and mouse AXL ECDs were conducted by immobilizing 100 ng of each protein in wells of Nunc MaxiSorp microplates overnight. Human AXL (aa 1-451) and cyno AXL (aa 1-449) were produced recombinantly as described in Example 10. Mouse AXL was purchased from Sino (cat. 51026-M08H). The next day, plates were blocked with 5% (w/v) dried milk in PBS. Murine mAbs (either hybridoma- or recombinantly-produced) or VHH-Fcs were diluted in PBS containing 1% BSA and 0.1% Tween-20 and added to wells for 2 hours at room temperature. Wells were washed 5× with PBS containing 0.1% Tween-20, then HRP-labeled protein A (diluted 1:1000 in PBS containing 1% BSA and 0.1% Tween™-20) was added to wells for 1 hour at room temperature. Wells were washed again 5× with PBS/0.1% Tween-20 and developed using TMB substrate. Absorbance was measured at 450 nm. As a positive control for mouse AXL binding, a commercial anti-mouse AXL mAb (clone 175128, R&D Systems MAB8541, rat IgG2A) was used and detected with donkey […] secondary antibody.

[2] = target: T2, recombinant human AXL extracellular …; test: ELISA on coated AXL ECD (100 ng/well), HRP-protein A
Description: as §1

[3] = target: T2, recombinant human AXL extracellular …; test: SPR Biacore T200, mAb captured on anti-Fc, AXL ECD flowed, single-cycle kinetics
Description: (§2) Surface plasmon resonance. For murine mAbs, binding to human and cynomolgus AXL ECD was assessed using a Biacore T200 instrument. Briefly, either anti-mouse or anti-human Fc antibody was immobilized on a research-grade CM5 series S sensor chip using amine coupling in acetate buffer. Murine or recombinant chimeric murine-human mAbs (mouse VH/VL; human constant regions) were captured, then recombinant human or cyno AXL ECD was flowed over the surface at different concentration ranges (0.1-500 nM) depending on the antibody. The running buffer was PBS/Tween-20 and the flow rate 100 uL/min. All binding studies were performed at 25° C. Surfaces were regenerated using 10 mM glycine, pH 1.5.

[4] = target: T4, recombinant cynomolgus AXL extracellular domain (cynomolgus); test: SPR Biacore T200, mAb captured on anti-Fc, AXL ECD flowed, steady-state analysis
T4 construct: range 1-449; also called Cyno AXL; cyno AXL ECD
Description: as §2

[5] = target: T3, human AXL expressed on the cell surface …; test: FACS on SKOV3 cells, apparent Kd
Description: (§3) FACS binding assay. Adherent cells were dissociated with non-enzymatic Sigma Cell Dissociation Solution (Cat. No. C5789). Cells suspensions were added to polypropylene, V-bottom 96-well plates and incubated for 2 hours on ice with primary antibodies at concentrations ranging from 100 nM to 0.001 nM or at a single dose of 100 nM (for the non-specific control). After incubation and washes, cells were incubated with fluorescently labeled secondary antibody (Alexa Fluor® 488 anti-human IgG from Jackson Cat. No 709-546-098) for 1 hour on ice, then washed. Cell viability was determined using Fixable viability dye 450 (20 min on ice). Stained cells were fixed in 1% formaldehyde at 4° C. and stored at 4° C. until acquisition which was performed the next day.
(§4) Binding of recombinant chimeric Abs to three cell lines was assessed by FACS as described above. The apparent Bmax and Kd determination is shown below in Table 14.

[6] = target: T2, recombinant human AXL extracellular …; test: SPR Biacore T200, mAb captured on anti-Fc, AXL ECD flowed (no footnote in the cell)
Description: as §2

[7] = target: T3, human AXL expressed on the cell surface …; test: FACS on NCI-H292 cells, apparent Kd
Description: as §3, §4

[8] = target: T3, human AXL expressed on the cell surface …; test: FACS on MDA-MB-231 luciferase cells, apparent Kd
Description: as §3, §4

[9] = target: T4, recombinant cynomolgus AXL …; test: SPR Biacore T200, mAb captured on anti-Fc, AXL ECD flowed, single-cycle kinetics
Description: as §2

[10] = target: T2, recombinant human AXL extracellular …; test: SPR, steady-state analysis (format not stated)
Description: For VH Hs and VHH-Fcs, binding to human and cynomolgus AXL ECD was assessed using either a Biacore T200 instrument or a Biacore 3000 instrument. Either human AXL ECD or anti-human Fc antibody was immobilized on a research-grade CM5 series S sensor chip (T200, rhAXL ECD) or a C1 sensor chip (3000, anti-human Fc) using amine coupling in acetate buffer. VHH-Fcs were captured on anti-human Fc surfaces. Either monomeric VHHs (for rhAXL ECD surfaces) or human and cyno AXL ECD (for VHH-Fc surfaces) were flowed over the surfaces at different concentration ranges. Running buffers were HBS-EP (3000) and HBS-EP+(T200). Flow rates were 10-40 ul/min. All binding studies were performed at 25° C. Surfaces were regenerated using 10 mM glycine, pH 1.5.

Row | binding result [1] | EC50 [2] | Kd [3] | koff [3] | kon [3] | Kd [4] | Kd [5] | koff [6] | kon [6] | Kd [7] | Kd [8] | Kd [9] | koff [9] | kon [9] | Kd [10] | Binder
1 | no binding | 1 nM | 5 nM | 0.013 s⁻¹ | 2.7e+06 M⁻¹ s⁻¹ | 1840 nM | – | – | – | – | – | – | – | – | – | hFC-F107-8D12 (antibody, human IgG1, kappa, V domains shown, Chimeric mAb, human IgG1 / human kappa constant regions; also called mAb F107-8D12; chimeric F107-8D12) VH: QVQLQQPGAELVKPGASVQLSCKASGYTFISFWINWVKQRPGQGLEWMGNIFPGSSSTNYNEKFKSKATLTVDKSSSTAYMQLSSLTSEDSAVYFCARDYYGGSPDYWGQGTTLTVSS VL: DIVMSQSPSSLAVSAGERVTMSCKSSQSLLNTRTRKNYLAWYQQKPGQSPKLLIYWASTRESGVPDRFTGSGSGTDFTLTISSVQAEDLAVYYCKQSYNLWTFGGGTKLEIKR
2 | no binding | 6 nM | 1 nM | – | – | 925 nM | 0.07 nM | 0.0015 s⁻¹ | 1.4e+06 M⁻¹ s⁻¹ | 0.0509 nM | 0.17 nM | – | – | – | – | hFC-F107-7H5 (antibody, human IgG1, kappa, V domains shown, Chimeric mAb, mouse VH/VL on human IgG1 heavy and human kappa light constant regions, made in CHO cells; also called mAb F107-7H5; hIgG-F107-7H5) VH: QVQLQQPGAELVKPGASVKLSCKASGYTFTSYWINWVKQRPGQGLEWIGNIYPDSSSTNYNEKFKSKATLTVDKSSTTAYIQFSSLTSEDSAVYYCTRDTYGGSPDYWGQGTTLTVSS VL: DIVMSQSPSSLAVSAGEKVTMSCKSSQSLLNSRTRKIYLAWYQQKPGQSPKLLIYWASTRQSGVPDRFTGSGSGTDFTLTISSVQAEDLAVYYCKQSYNLWTFGGGTKLEIKR
3 | no binding | 2 nM | 2 nM | 0.0018 s⁻¹ | 780000 M⁻¹ s⁻¹ | – | – | – | – | – | 0.366 nM | 4 nM | 0.0027 s⁻¹ | 690000 M⁻¹ s⁻¹ | – | hFC-F111-5E9 (antibody, human IgG1, kappa, V domains shown, Chimeric mAb, human IgG1 / human kappa constant regions; also called mAb F111-5E9; hIgG-F111-5E9) VH: QIQLVQSGPELKKPGETVKISCKASGYTFTKYGMNWVKQAPGKGLKWMGWINTYTGEPTYADDFKGRFAFSLETSASTAYLQINNLTTEDMVTYFCAKGGYYSNPIYPMDYWGQGTSVTVSS VL: DIQMTQTTSSLSASLGDRVTISCRASQDINNYLNWYQQKPDGTVKLLIYYISRLHSGVPSRFSGSGSGTDYSLTISNLELEDVATYFCQQGNTLPFTFGSGTKLEIKR
4 | – | – | – | – | – | – | – | – | – | – | – | – | – | – | 96 nM | NRC-sdAb002 (VHH monomer) (VHH, Llama VHH monomer; not shown: 6xHis and Myc tags) VHH: QVQLVDSGGGLVQAGGSLRLSCATSTRTVSSAVMAWFRQAPEKVRDFVGFITNSGNILYDDSVKGRFTISRDNAQNTVYLQMNSLKPEDTAVYYCAAKWSFSSGYGDLRRAAMYDYWGQGTQVTVSS
